The experiment addresses Cy3–Cy5 labeled nucleosome containing H3KC36me3 (human) (UniProt Q71DI3). Description: other fluorescence titration.

Our source for the Kd and S1/2 of the PHF1(2–87) titration values is paper PMC5397176.

Consider PHF1(2–87) (domain or fragment), for which the equilibrium dissociation constant (Kd) (commonly a measure of binding affinity in units of concentration) came to 20 µM and the S1/2 of the PHF1(2–87) titration at constant LexA is 16 µM.
